US20220025008A1 (FAPON BIOTECH, published 2022)

T1: Recombinant NT antigen (N-terminal pro-brain natriuretic peptide, NT-proBNP) (human, UniProt P16860 27-102)
T1 construct: domain: N-terminal pro-brain natriuretic peptide (NT-proBNP); also called recombinant NT protein; N-terminal pro-B-type natriuretic peptide
T1 sequence (looked up): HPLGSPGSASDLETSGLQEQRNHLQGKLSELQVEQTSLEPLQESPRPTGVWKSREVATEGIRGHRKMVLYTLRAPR


molecular target: T1, Recombinant NT antigen (N-terminal …); assay: indirect ELISA, KD calculated from half-max OD at 4 coating concentrations
Experimental: Recombinant NT antigen was diluted with coating solution to 1 μg/ml a microplate overnight at 4° C.; which was washed twice with washing solution and patted dry on the next day; with addition of blocking solution (20% BSA+80% PBS) at 120 μL per well at 37° C. for 1 h and patted dry; added the diluted NT monoclonal antibody, 100 μL/well at 37° C. for 30 min (partial supernatant for 1 h); washed 5 times with washing solution and patted dry; added rabbit anti-goat IgG-HRP […] per well at 37° C. for 30 min; washed 5 times with washing solution and patted dry; added color developing solution A (50 μL/well), added color developing solution B (50 μL/well) for 10 min; added stop solution, 50 μL/well; followed by reading the OD value at 450 nm (reference 630 nm) on the microplate reader.
Data from the enzyme immunoassay indirect method were analyzed in the same way as the activity identification, with four gradients of 3 μg/ml, 1.5 μg/ml, 0.75 μg/ml and 0.375 μg/ml for coating; the antibody was diluted from 1000 ng/ml by 2 times to 0.977 ng/ml for loading sample. OD values corresponding to different antibody concentrations at different coating concentrations were obtained. Under the same coating concentration, data were plotted logarithmically with the antibody concentration as the abscissa and the OD value as the ordinate.

| Binder | Kd |
| --- | --- |
| Mutation 1 (antibody, V domains shown, also called mutant 1 antibody) VH: QVRLQESGPSQVKPAQTLSLTCAISGFSITTYYIDWVRHTPGKPPEWLAQMTKDGNAVHQPTIRSRLSITRDTSKSQVFLKLTGVTTEDTAVYYCVRGIIDWGPGLLVTVSS VL: QAVLTQPSSVSRSLGQTVSITCSGSSDQVGFGDYVNWFQLIPGSAPKTLIFGATSRIRGVPDRFSGSRSGNTATLTINSLQAEDEADYYCGSPNSRGGYVFGSGTRLTVLS | 1.73 nM |
| WT 1-5 (antibody) heavy: QVRLQESGPSQVKPAQTLSLTCAISGPSLTTYYLDWVRHTPGKPPEWLAQMTKDANAVHNPTVRSRLSITRDTSKSQVFLKLTGVTTEDTAVYYCVKGLIDFGPGLLVTVSSASTTPPKVYPLTSCCGDTSSSIVTLGCLVSSYMPEPVTVTWNSGALTSGVHTFPAILQSSGLYSLSSVVTVPASTSGAQTFICNVAHPASSTKVDKRVEPGCPDPCKHCRCPPPELPGGPSVFIFPPKPKDTLTISGTPEVTCVVVDVGQDDPEVQFSWFVDNVEVRTARTKPREEQFNSTFRVVSALPIQHQDWTGGKEFKCKVHNEGLPAPIVRTISRTKGQAREPQVYVLAPPQEELSKSTLSVTCLVTGFYPDYIAVEWQKNGQPESEDKYGTTTSQLDADGSYFLYSRLRVDKNSWQEGDTYACVVMHEALHNHYTQKSISKPPGK light: QAVLTQPSSVSRSLGQTVSITCSGSSDQVGPGDYLNWFQLIPGSAPKTLIFAASSRIRGVPDRFSGSRSGNTATLTINSLQAEDEADYYCGSANSRNYVWGSGTRLTVLSQPKSAPSVTLFPPSKEELDTNKATVVCLISDFYPGSVNVVWKADGSTINQNVKTTQASKQSNSKYAASSYLTLTGSEWKSKSSYTCEVTHEGSTVTKTVKPSECS | 22.6 nM |
| Mutation 1-3 (antibody) heavy: QVRLQESGPSQVKPAQTLSLTCAISGFSLTTYYIDWVRHTPGKPPEWLAQMTKDGNAVHNPTLRSRLSITRDTSKSQVFLKLTGVTTEDTAVYYCVRGLIDFGPGLLVTVSSASTTPPKVYPLTSCCGDTSSSIVTLGCLVSSYMPEPVTVTWNSGALTSGVHTFPAILQSSGLYSLSSVVTVPASTSGAQTFICNVAHPASSTKVDKRVEPGCPDPCKHCRCPPPELPGGPSVFIFPPKPKDTLTISGTPEVTCVVVDVGQDDPEVQFSWFVDNVEVRTARTKPREEQFNSTFRVVSALPIQHQDWTGGKEFKCKVHNEGLPAPIVRTISRTKGQAREPQVYVLAPPQEELSKSTLSVTCLVTGFYPDYIAVEWQKNGQPESEDKYGTTTSQLDADGSYFLYSRLRVDKNSWQEGDTYACVVMHEALHNHYTQKSISKPPGK light: QAVLTQPSSVSRSLGQTVSITCSGSSDNVGFGDYVNWFQLIPGSAPKTLIFGAYSRIRGVPDRFSGSRSGNTATLTINSLQAEDEADYYCGSANSRNYVFGSGTRLTVLSQPKSAPSVTLFPPSKEELDTNKATVVCLISDFYPGSVNVVWKADGSTINQNVKTTQASKQSNSKYAASSYLTLTGSEWKSKSSYTCEVTHEGSTVTKTVKPSECS | 1.52 nM |
| Mutation 1-1 (antibody) heavy: QVRLQESGPSQVKPAQTLSLTCAISGFSITTYYLDWVRHTPGKPPEWLAQMTKDGNAVHNPTIRSRLSITRDTSKSQVFLKLTGVTTEDTAVYYCVRGIIDFGPGLLVTVSSASTTPPKVYPLTSCCGDTSSSIVTLGCLVSSYMPEPVTVTWNSGALTSGVHTFPAILQSSGLYSLSSVVTVPASTSGAQTFICNVAHPASSTKVDKRVEPGCPDPCKHCRCPPPELPGGPSVFIFPPKPKDTLTISGTPEVTCVVVDVGQDDPEVQFSWFVDNVEVRTARTKPREEQFNSTFRVVSALPIQHQDWTGGKEFKCKVHNEGLPAPIVRTISRTKGQAREPQVYVLAPPQEELSKSTLSVTCLVTGFYPDYIAVEWQKNGQPESEDKYGTTTSQLDADGSYFLYSRLRVDKNSWQEGDTYACVVMHEALHNHYTQKSISKPPGK light: QAVLTQPSSVSRSLGQTVSITCSGSSDQVGFGDYLNWFQLIPGSAPKTLIFGATSRLRGVPDRFSGSRSGNTATLTINSLQAEDEADYYCGSPNSRNYVFGSGTRLTVLSQPKSAPSVTLFPPSKEELDTNKATVVCLISDFYPGSVNVVWKADGSTINQNVKTTQASKQSNSKYAASSYLTLTGSEWKSKSSYTCEVTHEGSTVTKTVKPSECS | 2.51 nM |

The next lines start with the values.

| Kd | Binder |
| --- | --- |
| 2.09 nM | Mutation 1-13 (antibody) heavy: QVRLQESGPSQVKPAQTLSLTCAISGFSLTTYYLDWVRHTPGKPPEWLAQMTKDGNAVHNPTIRSRLSITRDTSKSQVFLKLTGVTTEDTAVYYCVRGIIDFGPGLLVTVSSASTTPPKVYPLTSCCGDTSSSIVTLGCLVSSYMPEPVTVTWNSGALTSGVHTFPAILQSSGLYSLSSVVTVPASTSGAQTFICNVAHPASSTKVDKRVEPGCPDPCKHCRCPPPELPGGPSVFIFPPKPKDTLTISGTPEVTCVVVDVGQDDPEVQFSWFVDNVEVRTARTKPREEQFNSTFRVVSALPIQHQDWTGGKEFKCKVHNEGLPAPIVRTISRTKGQAREPQVYVLAPPQEELSKSTLSVTCLVTGFYPDYIAVEWQKNGQPESEDKYGTTTSQLDADGSYFLYSRLRVDKNSWQEGDTYACVVMHEALHNHYTQKSISKPPGK light: QAVLTQPSSVSRSLGQTVSITCSGSSDQVGFGDYLNWFQLIPGSAPKTLIFGAYSRLRGVPDRFSGSRSGNTATLTINSLQAEDEADYYCGSPNSRNYVFGSGTRLTVLSQPKSAPSVTLFPPSKEELDTNKATVVCLISDFYPGSVNVVWKADGSTINQNVKTTQASKQSNSKYAASSYLTLTGSEWKSKSSYTCEVTHEGSTVTKTVKPSECS |
| 2.07 nM | Mutation 1-22 (antibody, V domains shown) VH: QVRLQESGPSQVKPAQTLSLTCAISGFSLTTYYLDWVRHTPGKPPEWLAQMTKDGNAVHNPTIRSRLSITRDTSKSQVFLKLTGVTTEDTAVYYCVRGVIDWGPGLLVTVSS VL: QAVLTQPSSVSRSLGQTVSITCSGSSDQVGFGDYLNWFQLIPGSAPKTLIFGAYSRLRGVPDRFSGSRSGNTATLTINSLQAEDEADYYCGSANSRNYVFGSGTRLTVLS |
| 2.16 nM | Mutation 1-25 (antibody) heavy: QVRLQESGPSQVKPAQTLSLTCAISGFSVTTYYLDWVRHTPGKPPEWLAQMTKDGNAVHNPTIRSRLSITRDTSKSQVFLKLTGVTTEDTAVYYCVRGIIDFGPGLLVTVSSASTTPPKVYPLTSCCGDTSSSIVTLGCLVSSYMPEPVTVTWNSGALTSGVHTFPAILQSSGLYSLSSVVTVPASTSGAQTFICNVAHPASSTKVDKRVEPGCPDPCKHCRCPPPELPGGPSVFIFPPKPKDTLTISGTPEVTCVVVDVGQDDPEVQFSWFVDNVEVRTARTKPREEQFNSTFRVVSALPIQHQDWTGGKEFKCKVHNEGLPAPIVRTISRTKGQAREPQVYVLAPPQEELSKSTLSVTCLVTGFYPDYIAVEWQKNGQPESEDKYGTTTSQLDADGSYFLYSRLRVDKNSWQEGDTYACVVMHEALHNHYTQKSISKPPGK light: QAVLTQPSSVSRSLGQTVSITCSGSSDQVGFGDYLNWFQLIPGSAPKTLIFGASSRLRGVPDRFSGSRSGNTATLTINSLQAEDEADYYCGSPNSRNYVFGSGTRLTVLSQPKSAPSVTLFPPSKEELDTNKATVVCLISDFYPGSVNVVWKADGSTINQNVKTTQASKQSNSKYAASSYLTLTGSEWKSKSSYTCEVTHEGSTVTKTVKPSECS |
| 3.2 nM | Mutation 1-10 (antibody, V domains shown) VH: QVRLQESGPSQVKPAQTLSLTCAISGFSITTYYLDWVRHTPGKPPEWLAQMTKDGNAVHNPTIRSRLSITRDTSKSQVFLKLTGVTTEDTAVYYCVRGVIDWGPGLLVTVSS VL: QAVLTQPSSVSRSLGQTVSITCSGSSDQVGFGDYLNWFQLIPGSAPKTLIFGASSRLRGVPDRFSGSRSGNTATLTINSLQAEDEADYYCGSANSRNYVFGSGTRLTVLS |
| 1.76 nM | Mutation 1-15 (antibody) heavy: QVRLQESGPSQVKPAQTLSLTCAISGFSVTTYYIDWVRHTPGKPPEWLAQMTKDGNAVHNPTLRSRLSITRDTSKSQVFLKLTGVTTEDTAVYYCVRGLIDFGPGLLVTVSSASTTPPKVYPLTSCCGDTSSSIVTLGCLVSSYMPEPVTVTWNSGALTSGVHTFPAILQSSGLYSLSSVVTVPASTSGAQTFICNVAHPASSTKVDKRVEPGCPDPCKHCRCPPPELPGGPSVFIFPPKPKDTLTISGTPEVTCVVVDVGQDDPEVQFSWFVDNVEVRTARTKPREEQFNSTFRVVSALPIQHQDWTGGKEFKCKVHNEGLPAPIVRTISRTKGQAREPQVYVLAPPQEELSKSTLSVTCLVTGFYPDYIAVEWQKNGQPESEDKYGTTTSQLDADGSYFLYSRLRVDKNSWQEGDTYACVVMHEALHNHYTQKSISKPPGK light: QAVLTQPSSVSRSLGQTVSITCSGSSDNVGFGDYVNWFQLIPGSAPKTLIFGATSRIRGVPDRFSGSRSGNTATLTINSLQAEDEADYYCGSANSRNYVFGSGTRLTVLSQPKSAPSVTLFPPSKEELDTNKATVVCLISDFYPGSVNVVWKADGSTINQNVKTTQASKQSNSKYAASSYLTLTGSEWKSKSSYTCEVTHEGSTVTKTVKPSECS |
| 1.53 nM | Mutation 1-7 (antibody) heavy: QVRLQESGPSQVKPAQTLSLTCAISGFSVTTYYLDWVRHTPGKPPEWLAQMTKDGNAVHQPTVRSRLSITRDTSKSQVFLKLTGVTTEDTAVYYCVRGIIDFGPGLLVTVSSASTTPPKVYPLTSCCGDTSSSIVTLGCLVSSYMPEPVTVTWNSGALTSGVHTFPAILQSSGLYSLSSVVTVPASTSGAQTFICNVAHPASSTKVDKRVEPGCPDPCKHCRCPPPELPGGPSVFIFPPKPKDTLTISGTPEVTCVVVDVGQDDPEVQFSWFVDNVEVRTARTKPREEQFNSTFRVVSALPIQHQDWTGGKEFKCKVHNEGLPAPIVRTISRTKGQAREPQVYVLAPPQEELSKSTLSVTCLVTGFYPDYIAVEWQKNGQPESEDKYGTTTSQLDADGSYFLYSRLRVDKNSWQEGDTYACVVMHEALHNHYTQKSISKPPGK light: QAVLTQPSSVSRSLGQTVSITCSGSSDNVGFGDYLNWFQLIPGSAPKTLIFGASSRLRGVPDRFSGSRSGNTATLTINSLQAEDEADYYCGSGNSRNYVFGSGTRLTVLSQPKSAPSVTLFPPSKEELDTNKATVVCLISDFYPGSVNVVWKADGSTINQNVKTTQASKQSNSKYAASSYLTLTGSEWKSKSSYTCEVTHEGSTVTKTVKPSECS |
